Reference: the nanobody polyreactivity screen of Harvey et al. (2022)

Assay: yeast display, Sf9 membrane polyspecificity reagent, FACS + sequencing; frameworks hold sequencing errors
Method in brief: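 A synthetic nanobody library was expressed on Saccharomyces cerevisiae BJ5465 by galactose induction for 36–48 hours. The library was stained for 1 hour at 4 °C with 10% biotinylated, detergent-solubilized Sf9 membrane reagent and enriched with streptavidin microbeads before FACS. Low and high (top ~1%) gates were set on anti-HA fluorescence for expression and streptavidin fluorescence for reagent binding, and each polyreactivity label reflects the gate of origin.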

Row | Sequence | polyreactivity (PSR sort gate)
1 | QVQLEDSGGGLVQAGGSLRLSCAASGGTFRYNSMGWYRPAPGKERELVAGITWGGGSTYYADSVKGRFTISRDYAKNSVYLQMNSLKPEDTAVYYCNAVRPRQWWTHYGYWGQGTQVTVSS | high polyreactivity
2 | QVQLVESGGGLVQAGGSLRLSCAASGSIFSVNAMGWYRQAPGTEREFVASINFRGGRTYYADSVKGRFRISRDNAKNTVYLQMNCLKPEDTADYYCAAVITLTDTGYGPSFRVFYWGQGTQVTVSS | high polyreactivity
3 | QVQLVESGGGLVQAGGSLRLSCAASGSIFKRNAMGWYRQAPGKERELVASITWRGGRTYYADSVKGRFTISRDNAKNTVYLQMNILKPEDTAVYYCATTQYTSHYDAYGYWGQGTQVTVSS | high polyreactivity
4 | QVQLVESGGRLVQAGGSLRLSCAASGFILTSYAMGWYRQAPGKERELVAAISSRGGRTYYADSVKGRFTISRDNAKNTVYLQMNSLKPEDTAVYYCNAVVYVVGDFDYWGQGTQVTGSS | high polyreactivity
5 | QVQLVESGGGLVQAGGILRLSCAASGNIFPLYAMGWYRQAPGKERELVAAITWSTTSTYYADSVKGRFTISRDNAKNTVYLQMNSLKPEDTAVYYCAAGAYRRNKSDYYYWGQGTQVTVSS | low polyreactivity
6 | QVQLVESGGGLVQEGGSLRLSCAASGLTFTGNAMGGYRQAPGKEREFVAAIRWSAGSTYYADSVKGRFTISRDNAKNTVYLQMNSLKPEDTAVYYCYAALIVSGHNPNDYWGQGTQVTGSS | low polyreactivity
7 | QVQLVESGGGLVQAGGSLRLSCAASGSTFPLYAMGWYRQAPGKEREMVAAITGGGGRTYYADSVKGRFTISRDNAKNTVYLQMNSLKPEDTAVYYCNAVVYLTNYWYDYWGQGTQVTVSS | low polyreactivity
8 | QVQLVESGGGLVQAGGSLRLSCAASGYIFYRNAMGWYRQAPVKEREFVAAISSSGVSTYYADSVKGRFTISRDNAKNTVYLQMNSLKPEDTAVYYCAASYLTWKRRYDYWGQGTQVTVSS | high polyreactivity
9 | QVQLVESGGGLVQAGGSLRLSCAASGSTFYPYAMGWYRQAPGKERELVAAITYRGGSTYYADSVKGRFTISRDNAKNTVYLQMNSLKPEDTAVYYCAADIGRHTDNYDPRYDYWGQGTQVTVSS | low polyreactivity
10 | QVQLVESAGGLVQAGGSLRLSCAASGNTFWFYGMGWYRPAPGKVRELVAAITSGGSTDYPDSVKGRCTISRDNAKNTVYLQMNSLKPEDTALYYCAAEPVAYYGSSYGYWGQGTQVTVSS | low polyreactivity
11 | QVQLVESGAGLVQAGGSLRLSCAASGSIFGSYAMGRDRQAPGKERELVAGITYRGSSTYYAESVKGRFTISRDNAKNTVYLQMNSLKPEATAVYYCAADPVFDEYDYWGQGTQVTVSS | low polyreactivity
12 | QVQLVESGGGLVQAGGSLSLSCAASARTFYYYAMGWSRQAPGKEREFVASITWRGGRTYYADSVKGRFTISRDNAKNTVYLQMNSLKPEDTAVYYCAADGSYAIGGYGYWGQGTQVTVSS | high polyreactivity
13 | QVQLVESGGGLVQAGGSLRFSCAASGNIFVVYTMGWDRQAPGKERELVADITSIGTSTYYADSVKGRFTISRDNAKNTVYLQMNSLKPEDTAVYYCNKDGSVWGKYTEYYWGQGTQVTVAS | low polyreactivity
14 | QVQLVESGGGLVQAGGSLRLSCAASGSIFRSYAMGWYRQAPGKERELVAAITSSSGSTYYADSVKGRFTISRDNAKNTVYLQMNSLKPEDTAVYYCNAPYWKSRFRAYYHWGQGTQVTVSS | high polyreactivity
15 | QVQLVESGGGLVQAGGSLRLSCAASGFTFGYYAMGWYRQAPGKERELVAAITYDGDITYYADSVKGRFTISRDNAKNTVYLQMNSLKPEDTAVYYCAADTVYRSYYWGQGTQVTVSS | low polyreactivity
16 | QVQLVESVGGLVQAGGSLRLSCAASGSIFSYYAMGWYRQAPGKERELVAAITISGSSTYYADSVKGRFTISRDNAKNTVYLQMNSLKPEDTAVYYCNARTIRNWSGQHIYDYWGQGTQVTVSS | high polyreactivity
17 | QVQLVESGGGLVQAGGSLRLSCAASGSIFYAYVMGWYRQAPGKERELVAAISSGGSTYYADSVKGRFTISRDNAKNTVYLQMNSLKPEDTAVYYCAVGRPSGWSYYTGGDYWGQGTQVTVSS | high polyreactivity
18 | QVQLVESGGGLVQAGGSLRLSCAASGRTSLAYAMGWYRQAPGKERELVAAISRTGSTYYADSVKGRFTISRDNAKNTVYLQMNSLKPEDTAVYYCNAKRRPYSVRSDYWGQGTQVTVSS | high polyreactivity
19 | QVQLVESGGGLVQAGGSLRLSCAASGSIFDYYAMGWYRQAPGKERELVATISWIGDRTYYADSVKGRFTISRDNAKNTVYLQMNSLKPEDTAVYYCATDYYEDWRGYVDYWYRPYDYWGHGTQVTVSS | high polyreactivity
20 | QVQLVESGGGLVQAGGSLRLSCAASGRTFLGYSMGWYRQAPAKERELVAAISGSCDRTYYADSVKGRFTISRDNAKHTVYLQMYSLKPEYTEVYYCNAVTVRYYASYYGRGMDYWGQGTQETVSS | high polyreactivity
21 | QVQLVESGGGLVQAGGSLRLSCAASGIIFDFYAMGGYRQAPGKEREFVAAINSGSGSTYYADSVKGRFTISRDNAKNTVYLQMNSLKPVDTAVYYCAADGLSATLTWYSYDYWGQGTQVTVSS | low polyreactivity
22 | QVQLVESGGGLVQAGGSLRLSCAASGLTFSKYAMGWYRQAPGKERELVAAINRSDGGTYYADSVKGRFTISRDNAKNTVYLQMNSLKPEDTAVYYCNAVVLYGWYGRRYSSRLDYWGQGTQVTVSS | high polyreactivity

Row | Sequence | polyreactivity (PSR sort gate)
23 | QVQLVESGGGLVQAGGSLRLSCAASGSIFYYNAMGWYIQAPGKERELVAAIRSTGSTNYADSVKGRFTISRDNAKNTVYLQMNSLKPEDTAVYYCNADYIFWLTLFDYWGQGTQVTVSS | low polyreactivity
24 | QVQLVESGGGLVQAGGSLRLSCAASGNIFVINAMGWYRQAPGKERELVAAISWSTANTYYADSVKGRFTISRDNAKNTVYLQLNSLKPEDTAVYYCAAVFRYYTYSGAVRYYYWGQGTQVTVSS | high polyreactivity
25 | QVQLVESGGGLVQAGGSLRLSCAASGRTFWRYAMGWYRQAPGKERELVATISSGGSTNYADSVKGRFTISRDNAKNTVYLQMNSLKPEDTAVYYCNAEYSYYDLLAYDYWGQGTQVTVSS | low polyreactivity
26 | QVQLVESGGGLVQAGGSLRLSCAASGSILGPYAMGWYRQAPGKERELVAAISQSGARTYYADSVKGRFTISRDNAKNTVYLQMNSLKPEDTAVYYCAAQSRKGGWSAYYYWGQGTQVTVSS | high polyreactivity
27 | QVQLVESGVGLVQAGGSVRLSCAASGFTFGYYAMGWYRQAPGKERELVASISSVDNTYYADSVKGRFTISRDNAKNTVYLQMNSLKPEDTAVYYCAARYRDYFVRGGYWGQGTQVTVSS | high polyreactivity
28 | QVQLVESGGCLVQAGGSLRLSCAASGFILSGNTMGWYRQAPGKERELVAGINDDSSTYYADSVKGGFTISRDNAKNTVYLQMNSLKPEDTAVYYCNAGQSWYPSWYYYWGQGTQVTVSS | low polyreactivity
29 | QVQLVESGGGLVQAGGSLRLSCAASGRTFDSNTMGWYRQAPGKERELVAAITGSGGRTYYADSVKGRFTISRDNAKNSVYLQMNSLKPEDTAVYYCAARPYFYERSAGYYWGQGTQVTVSS | high polyreactivity
30 | QVQLVESGGGLVQAGGSLRLTCAASGRTFYIYTMGWYRQAPGKERELVAAISSSGDSTYYADSVKGRFTISRDNAKYTVYLQMISLKPEDTAVYYCAAEYAYHHVGFGYWGQGTQVTVSS | low polyreactivity
31 | QVQLVESGGGLVQAGGSLRLSCAASGRIFYFNAMGWYRQAPGKERELVATITYIGGSTHYADSVKGRFTISRDNAKNTVYLQMNSLKPEDTAVYYCAVRDGKDTDTYWYGSWGQGTQVTVSS | low polyreactivity
32 | QVQLVESGGGLVQAGGSLRLSCAASGYIFQYYPMGWYRQAPGKERELVAAITSGTRTYYADSVKGRFTISRDNAKNTVYLQMNSLKPDDTAGYYCAASPDYSRYWVYAPTRRLGYWGQGTQVTVSS | high polyreactivity
33 | QVQLVESGGGLVQAGGSLRLSCAASGSTFWYYTMGWSRQAPGKERELVAGITSGGSTYYADSVKGRFTISRDNAKNTVYLQMNSLKPEDTAVYYCAKRYYGRGYYYWGQGTQVTVSS | high polyreactivity
34 | QVQLVESGGGLVQAGGSLRLSCAASGRIFWWYAMGWYRQAPGKERELVAVIDDSGGITYYADSVKGRFTISRDKANNTVYLQMNSLNPEDTAVYYCARNVNAQKVLGGFDSWGQGTQVTVSS | low polyreactivity
35 | QVQLVEYGGGLDQAGGSLRLSCAAYGLTFSPYAMGWYRQAPGKEMELVATITIGGSTKYADSVKGRVTISRDNAKNTVYLQMNSLKPEDTAVYYCAVRSGYVTRRYDYWGQGTQVTVSS | low polyreactivity
36 | QVQLVESGGGLVQAGGSLRLSCAASGIIFDWYAMGWYRQAPGTERELVAAISDSGDTTYYADSVKGRFTISRDNAKNTVYLQMNSLNPEDTAVYYCAARWEYVGYRRRYYRFDYWGQGTQVTVSS | high polyreactivity
37 | QVQLVESGGGLVQAGGSLRLSCAASGSIFRAYAMGWYRQAHGKERELVAAITGNGARTYYADSVKGRFTISRDNAKNTVYLQMNSLKPEDTAVYYCAKRGNRQHRWWYDYWGQGTQVTVSS | low polyreactivity
38 | QVQLVESGGGLVQAGGSLRLSCAASGSTFNVYGLGWYRQAPGKERELVAAINRDGITYADSVKGRFTISRDNAKNTVYLQMNSLKPEDTAVYYCAAGYSPYKGSAGYYWGQGTQVTVSS | low polyreactivity
39 | QVQLVDSGGGLVQAGGSLRLSCAASGSTFVKYTMGWYRQAPGKERELVAVISRSGGSTYYADSVKGRFTISRDNAKNTVYLQMNSLKPEDTAVYYCAAHFSRDFDYWGLGTQVTVSS | high polyreactivity
40 | QVQLVESGGGLVQAGGSLRLSSAASGRTFAVNAMGSYRQAPGKERELLAAISQRAGRTYYADSVKGRFTISRDNEKNTVYLQMNSLKPEDTAVYYCNVVGFRSRVGSRGYWGLGTQVTVSS | high polyreactivity
41 | QVQLVESGGGLVQAGGSLRLSCAASGRIFDVYAMGWYRQAPGKERALVAAITFSGGSTYYADSVKGRFTISRDNAKNTVYLQMNSLKPEDTAVYYCAAEYVDWFGDYDYWGQGTQVTVSS | high polyreactivity
42 | QVQLVESGGALLQAGGSLRLSCAASGRTFGYNAMGWYRQAPGKEREMVAAITYSGGRTSYADSVKGRFTISRDNAKNTVYLQMNSLKPEDTAVYYCAAQTRYYSGYNYWGQATQVTVSS | high polyreactivity
43 | QFQLVESGGGLVQAGGSLRLSCASSGRTFGYNTMGWYRQAPGKERELVAAINYSGGSTYYADSVKGRFTISRDNAKNTVYLQMNSLKPEDTAVYYCNAKPRWYVPYDYWGQGTQVTVSS | high polyreactivity
